According to publication PMC13155533, “The secreted protein PCYOX1L controls the surface expression of acid-sensing ion channel 1a” (Science Advances, 2025):

B1: rat ASIC1a-GFP (natural protein, UniProt P55926-1 1-526, looked up)
chain: MELKTEEEEVGGVQPVSIQAFASSSTLHGLAHIFSYERLSLKRALWALCFLGSLAVLLCVCTERVQYYFCYHHVTKLDEVAASQLTFPAVTLCNLNEFRFSQVSKNDLYHAGELLALLNNRYEIPDTQMADEKQLEILQDKANFRSFKPKPFNMREFYDRAGHDIRDMLLSCHFRGEACSAEDFKVVFTRYGKCYTFNSGQDGRPRLKTMKGGTGNGLEIMLDIQQDEYLPVWGETDETSFEAGIKVQIHSQDEPPFIDQLGFGVAPGFQTFVSCQEQRLIYLPSPWGTCNAVTMDSDFFDSYSITACRIDCETRYLVENCNCRMVHMPGDAPYCTPEQYKECADPALDFLVEKDQEYCVCEMPCNLTRYGKELSMVKIPSKASAKYLAKKFNKSEQYIGENILVLDIFFEVLNYETIEQKKAYEIAGLLGDIGGQMGLFIGASILTVLELFDYAYEVIKHRLCRRGKCQKEAKRSSADKGVALSLDDVKRHNPCESLRGHPAGMTYAANILPHHPARGTFEDFTC
notes: ASIC1a, rat, in pEGFP-N1; the methods say that rat ASIC1a was used for coexpression with PCYOX1L in HEK293 cells; The vector pEGFP-N1 would put GFP at the C-terminus; source: HEK cells, transfected, in digitonin lysate
B2: rat ASIC2a-GFP (natural protein, UniProt Q62962-1 1-512, looked up)
chain: MDLKESPSEGSLQPSSIQIFANTSTLHGIRHIFVYGPLTIRRVLWAVAFVGSLGLLLVESSERVSYYFSYQHVTKVDEVVAQSLVFPAVTLCNLNGFRFSRLTTNDLYHAGELLALLDVNLQIPDPHLADPTVLEALRQKANFKHYKPKQFSMLEFLHRVGHDLKDMMLYCKFKGQECGHQDFTTVFTKYGKCYMFNSGEDGKPLLTTVKGGTGNGLEIMLDIQQDEYLPIWGETEETTFEAGVKVQIHSQSEPPFIQELGFGVAPGFQTFVATQEQRLTYLPPPWGECRSSEMGLDFFPVYSITACRIDCETRYIVENCNCRMVHMPGDAPFCTPEQHKECAEPALGLLAEKDSNYCLCRTPCNLTRYNKELSMVKIPSKTSAKYLEKKFNKSEKYISENILVLDIFFEALNYETIEQKKAYEVAALLGDIGGQMGLFIGASLLTILELFDYIYELIKEKLLDLLGKEEEEGSHDENMSTCDTMPNHSETISHTVNVPLQTALGTLEEIAC
notes: ASIC2a, rat, in pEGFP-N1; In the functional row the untagged rat ASIC2a (pcDNA3.1) was used; source: HEK cells, transfected, in digitonin lysate

How the values were obtained:
[1] = molecular target: the molecule itself; assay: native gel or EMSA; high-resolution clear native PAGE (4 to 16%) of GFP-tagged proteins from 1% digitonin lysates of transfected HEK cells, GFP fluorescence scan; ASIC1a-GFP coexpressed with PCYOX1L-GFP
[2] = molecular target: the molecule itself; assay: native gel or EMSA; high-resolution clear native PAGE (4 to 16%) of GFP-tagged proteins from 1% digitonin lysates of transfected HEK cells, GFP fluorescence scan; without coexpressed PCYOX1L

Protein | stoichiometry N [1] | stoichiometry N [2]
B1 | 3 | –
B2 | – | 3
